The test has as its target His-Tau-Strep (human 4R2N Tau) (human, UniProt P10636-8 1-441). Briefly: AlphaScreen or HTRF. On the technique in general: In Alpha technology, singlet oxygen from a donor bead excites a nearby acceptor bead.

B1: GST-Fyn-SH3-Strep (human Fyn-SH3 domain) (domain or fragment)
chain: not shown
Take B1: the binding result is listed as “binds”.

Source of the values: publication PMC10903085 (Neurotherapeutics, 2023).
